Assay results reported in a protein production outcome set (Wang et al. 2014).

Experiment: label from the status in PepcDB records

Sequence | protein production
MVNPIATGILVLAALYFARSILMPLAFSLFVIALAWPIQMALQRRIPRLAALLITLLLVVLVIVIVGSAIVWGLGELSQWLFYNTGRLQAIYASWTDWLEGHGIAIVSPLGELFSISRLVGLTHSLVTRLNSVAGFAVLTFIFVMLGLLEAEDLQRRLRSSLAQPQGEMLLHIGREIAGKIRRFMVVRSLACILTGLVVWAFTLVAGLELASAWAAIAFALNYIPFIGPLMATIFPTLFAIAQSGSWQLALIVFVGLNVIQFAIGSYLEPFLTGASLAISPFAVMFAVFFWSFMWGVPGAFIGVPILIVVVTWCAHEQSTRWIATLLSGGRQST | failed
MIFMRKVVAEVSIIPLGKGASVSKYVKKAIEVFKKYDLKVETNAMGTVLEGDLDEILKAFKEAHSTVLNDVDRVVSSLKIDERKDKENTIERKLKAIGEL | not failed
MTQRPRQDERAKDVWFEYVLTAGRFSAWPIRWQGWLATALLIVGPITGMMAIAKLAPGVPPFVLVLGAMTVCFGTVFPLAYFKGRPAKSRG | failed
MPLPSSARALKKPRLDDEVRFLRSWIEKPLHMGAVMPSGKLLARTMAHYVDVNSDAPVVELGPGTGAITSALVERGVDQKRLVLVEYNPGFCALLRDRYPQAKVVQGDAYRLRDTLWNVLSAPASAVVSGLPLVTKPMLTRLRLIRDAFTALAPGAPFVQFTYAVVPPIPKSLPGVSTEASERIWMNLPPARVWVYRKD | failed
MNVIYPLAVPKGRRLSCEVCEAPAERMCTACTVTYYCGPVHQKADWDSIHAKICQLLIPLRTTMPFYNSEEERQHGLQQLQRRQKHLIEFCYTVAQKYLFEGRHEDAVPAALHSLRFRMNVHGLSSVELVPAYLLLAEASLGLGRIVQAEEYLSQAQWTVLKSTDCSNATHSLLHRNLGLLYIAKKNLDEARYHLANDIYFASCAYGTEDIRTSGGYFHLANIFYGLKKMELADTLYTKVSEIWYTYLNSHYQALLEARSQQTDLLGKQFVNDTGLDEAQEAEAIRILTSTLIIQESTSTKAPQKSILILKTLSILYYLMLECSKAKEYAMKALSLAETYVSEEEQRFIQELLSVISAEEKQP | failed
MGERIALATREGAPLAAYHAPPLEARRGGIVMLHAIWGVTPHLRQLSDSLAEQGYEVMLPSLMDAADAAFPVEDTTPSILDARMAMGERTGWGASTLPRVQACIDALNGPVYAMGFCYGGTTAWLAACRCEGLSAVSAFYGGDIAAYRDETPKVPTILHFGKTDTMIPLSAVDAVRDRHPDLPVYLYDAGHAFVAPSGHHPDSARLALLRTLQLFQR | failed
MNPEVTVLMSVYNDKNYLSESIESILNQTFENFEFLIINDASTDGSGELLEEYSKKDKRIRLIHNKNNRGLSYSLAEGVSLAKAPWIARMDADDVSFKDRLAVQMDHVKAHSELDILGSYVIDIDDKGNELEIRKVPTTHKEIANLIWTCPFIHPTVLFKKDSIIKAGSYDRNLRRRQDYDLWFRCLEAKLKFENIDKPLLYYRSTDDYYKKNNFKVQVQQAKMGFAGARRVKAKPIAYIGITVAFIKGILPYHIRKPLSQLLKKVDPRRALEHHHHHH | not failed
MDSEAQQISLLIGKEDRYGRVEVNLMEVEPMNAEDFNAKLDVSFKAWKDQGKKGIWIKLPCELSSLVDIAMKKGFTYHHAENEYAVLSSWISDLPNTIPANASHRIGIGALVLNKNREVLAVQEIDGVFKDTGLWKLPTGVIQENRENFRYMANICLKRSQEKEYLGFSNVLTKNSTGKESYLYCSTDHAYFLKGKPDHSSTSLFTTLLRKCFSI | failed
MKKIAIFGSAFNPPSLGHKSVIESLSHFDLVLLEPSIAHAWGKNMLDYPIRCKLVDAFIKDMGLSNVQRSDLEQALYQPGQSVTTYALLEKIQEIYPTADITFVIGPDNFFKFAKFYKAEEITERWTVMACPEKVKIRSTDIRNALIEGKDISTYTTPTVSELLLNEGLYR | not failed
MAAKLCIPSSSFSHRTNDSITSSSSSYSSLLALPQFFCPPSPLGFPQFKLHAKLGGGDGEVKPKDKKKFITKDEEPEQYWQSVGEREGENPMKTPLPYIIIFGMSTPFVILAIAFANGWIKVPIR | failed
MNPIKPPFTLNQYFAAWFVHVFTASAACIGVFSLYKIYQHDYVFALWLMAITVFIDAVDGSLARLVHVKSVLPKIDGALLDNIVDYLNYVITPCFFLLVKPGMLPADYVVPITAAITITSAYQFCQDDAKTPDHFFKGFPCYWNITVFYMYIFNTSMIVNTVLLSLFCVLIFIPVKYVYPSRLDYLTESRVLKILMHCCSALYGISSFCLLVNYPETNKLWVSLSLGYVGMYLFLSFYRTYYPMFKAKITANNKD | failed
